{"source": "IntAct's records for PubMed 16374512", "parents": {"B1": {"name": "Retinoblastoma-associated protein (Homo sapiens), P06400 (parent)", "chain": "MPPKTPRKTAATAAAAAAEPPAPPPPPPPEEDPEQDSGPEDLPLVRLEFEETEEPDFTALCQKLKIPDHVRERAWLTWEKVSSVDGVLGGYIQKKKELWGICIFIAAVDLDEMSFTFTELQKNIEISVHKFFNLLKEIDTSTKVDNAMSRLLKKYDVLFALFSKLERTCELIYLTQPSSSISTEINSALVLKVSWITFLLAKGEVLQMEDDLVISFQLMLCVLDYFIKLSPPMLLKEPYKTAVIPINGSPRTPRRGQNRSARIAKQLENDTRIIEVLCKEHECNIDEVKNVYFKNFIPFMNSLGLVTSNGLPEVENLSKRYEEIYLKNKDLDARLFLDHDKTLQTDSIDSFETQRTPRKSNLDEEVNVIPPHTPVRTVMNTIQQLMMILNSASDQPSENLISYFNNCTVNPKESILKRVKDIGYIFKEKFAKAVGQGCVEIGSQRYKLGVRLYYRVMESMLKSEEERLSIQNFSKLLNDNIFHMSLLACALEVVMATYSRSTSQNLDSGTDLSFPWILNVLNLKAFDFYKVIESFIKAEGNLTREMIKHLERCEHRIMESLAWLSDSPLFDLIKQSKDREGPTDHLESACPLNLPLQNNHTAADMYLSPVRSPKKKGSTTRVNSTANAETQATSAFQTQKPLKSTSLSLFYKKVYRLAYLRLNTLCERLLSEHPELEHIIWTLFQHTLQNEYELMRDRHLDQIMMCSMYGICKVKNIDLKFKIIVTAYKDLPHAVQETFKRVLIKEEEYDSIIVFYNSVFMQRLKTNILQYASTRPPTLSPIPHIPRSPYKFPSSPLRIPGGNIYISPLKSPYKISEGLPTPTKMTPRSRILVSIGESFGTSEKFQKINQMVCNSDRVLKRSAEGSNPPKPLKKLRFDIEGSDEADGSKHLPGESKFQQKLAEMTSTRTRMQKQKMNDSMDTSNKEEK"}}, "key": {"e2f1_human E2F1, Q01094 [1]": {"variants_of": "B1", "settings": "with e2f1_human E2F1, Q01094"}, "e2f1_human E2F1, Q01094 [2]": {"variants_of": "B1", "settings": "with e2f1_human E2F1, Q01094", "remark": "listed apart in the source"}}}
{"variant": "K873Q", "values": [{"measurement": "effect of a mutation on the interaction", "setting": "e2f1_human E2F1, Q01094 [1]", "value": "disrupting interaction"}, {"measurement": "effect of a mutation on the interaction", "setting": "e2f1_human E2F1, Q01094 [2]", "value": "decreasing interaction"}]}
{"variant": "K874Q", "values": [{"measurement": "effect of a mutation on the interaction", "setting": "e2f1_human E2F1, Q01094 [1]", "value": "disrupting interaction"}, {"measurement": "effect of a mutation on the interaction", "setting": "e2f1_human E2F1, Q01094 [2]", "value": "decreasing interaction"}]}
